Reference: the supplement of paper PMC7877785
± gives the uncertainty stated by the source.

Assay: self-splicing fitness, log relative to wild type (ln ratio); higher = more splicing; Tetrahymena group I intron in knt gene, E. coli kanamycin selection, DiMSum; sequences stand for … in CUCUCU…GGAGGGAAAAGUUAUCAGGCAUGCACCUGGUAGCUAGUCUUUAAACCAAUAGAUUGCAUCGGUUUAAAAGGCAAGACCGUCAAAUUGCGGGAAAGGGGUCAACAGCCGUUCAGUACCAAGUCUCAGGGGAAACUUUGAGAUGGCCUUGCAAAGGGUAUGGUAAUAAGCUGACGGACAUGGUCCUAACCACGCAGCCAAGUCCUAAGUCAACAGAUCUUCUGUUGAUAUGGAUGCAGUUCACAGACUAAAUGUCGGUCGGGGAAGAUGUAUUCUUCUCAUAAGAUAUAGUCGGACCUCUCCUUAAUGGGAGCUAGCGGAUGAAGUGAUGCAACACUGGAGCCGCUGGGAACUAAUUUGUAUGCGAAAGUAUAUUGAUUAGUUUUGGAGUACUCGUGGUCG
How it was run: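 Library with all eight P1ex-region intron nucleotides randomised, intron inside the knt kanamycin-resistance gene on pET-22b(+), in E. coli BL21(DE3). Cells grew overnight at 37°C or 30°C on LB agar with or without 25 μg/mL kanamycin (plus 100 μg/mL carbenicillin, 50 μM IPTG, 0.2% rhamnose), in six replicate transformations. Pooled colonies were amplicon-sequenced on Illumina HiSeq 2500. DiMSum fitness is the error-weighted combination of wild-type-normalised replicate fold changes, kanamycin versus none.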

ACCUAGCAAUAUUACGAGGG
self-splicing fitness (ln) (30 °C): -3.45 ± 0.17
self-splicing fitness (ln) (37 °C): -1.4 ± 0.12

ACCUAGCAAUAUUACGAUGA
self-splicing fitness (ln) (30 °C): -1.21 ± 0.091
self-splicing fitness (ln) (37 °C): -0.609 ± 0.1

ACCUAGCAAUAUUACGCACA
self-splicing fitness (ln) (30 °C): -0.931 ± 0.078
self-splicing fitness (ln) (37 °C): -0.476 ± 0.079

ACCUAGCAAUAUUACGCUAA
self-splicing fitness (ln) (30 °C): -2.61 ± 0.23
self-splicing fitness (ln) (37 °C): -1.32 ± 0.16

ACCUAGCAAUAUUACGGAAG
self-splicing fitness (ln) (30 °C): -2.8 ± 0.23
self-splicing fitness (ln) (37 °C): -2.38 ± 0.19

ACCUAGCAAUAUUACGGAGA
self-splicing fitness (ln) (30 °C): -1.83 ± 0.17
self-splicing fitness (ln) (37 °C): -2.45 ± 0.2

ACCUAGCAAUAUUACGGCCU
self-splicing fitness (ln) (30 °C): -0.404 ± 0.069
self-splicing fitness (ln) (37 °C): -0.963 ± 0.075

ACCUAGCAAUAUUACGGCGC
self-splicing fitness (ln) (30 °C): -0.607 ± 0.097
self-splicing fitness (ln) (37 °C): 0.63 ± 0.13

ACCUAGCAAUAUUACGGGAC
self-splicing fitness (ln) (30 °C): -1.87 ± 0.17
self-splicing fitness (ln) (37 °C): -1.36 ± 0.18

ACCUAGCAAUAUUACGGUGG
self-splicing fitness (ln) (30 °C): -4 ± 0.16
self-splicing fitness (ln) (37 °C): -3.02 ± 0.15

ACCUAGCAAUAUUACGUAAU
self-splicing fitness (ln) (30 °C): -1.28 ± 0.049
self-splicing fitness (ln) (37 °C): -0.573 ± 0.066

ACCUAGCAAUAUUACGUAUG
self-splicing fitness (ln) (30 °C): -2.71 ± 0.097
self-splicing fitness (ln) (37 °C): -1.61 ± 0.099

ACCUAGCAAUAUUACGUAUU
self-splicing fitness (ln) (30 °C): -1.84 ± 0.075
self-splicing fitness (ln) (37 °C): -1.71 ± 0.11

ACCUAGCAAUAUUACGUCAU
self-splicing fitness (ln) (30 °C): -2.11 ± 0.12
self-splicing fitness (ln) (37 °C): -1.63 ± 0.12

ACCUAGCAAUAUUACGUCUU
self-splicing fitness (ln) (30 °C): -0.806 ± 0.064
self-splicing fitness (ln) (37 °C): -0.667 ± 0.075

ACCUAGCAAUAUUACGUGUA
self-splicing fitness (ln) (30 °C): -2.84 ± 0.099
self-splicing fitness (ln) (37 °C): -1.45 ± 0.075

ACCUAGCAAUAUUACGUUCU
self-splicing fitness (ln) (30 °C): -1.08 ± 0.1
self-splicing fitness (ln) (37 °C): -0.757 ± 0.1

ACGAAGCAAUAUUACGACCU
self-splicing fitness (ln) (30 °C): 0.0549 ± 0.12
self-splicing fitness (ln) (37 °C): 0.126 ± 0.13

ACGAAGCAAUAUUACGACUU
self-splicing fitness (ln) (30 °C): -0.832 ± 0.058
self-splicing fitness (ln) (37 °C): 0.00574 ± 0.081

ACGAAGCAAUAUUACGAGAC
self-splicing fitness (ln) (30 °C): -2.39 ± 0.38

ACGAAGCAAUAUUACGAUAU
self-splicing fitness (ln) (30 °C): -3.39 ± 0.14
self-splicing fitness (ln) (37 °C): -2.03 ± 0.14

ACGAAGCAAUAUUACGAUUU
self-splicing fitness (ln) (30 °C): -1.28 ± 0.094
self-splicing fitness (ln) (37 °C): -0.317 ± 0.1

ACGAAGCAAUAUUACGCCAG
self-splicing fitness (ln) (30 °C): -2.08 ± 0.19
self-splicing fitness (ln) (37 °C): -1.72 ± 0.3

ACGAAGCAAUAUUACGCCGU
self-splicing fitness (ln) (30 °C): -3.86 ± 0.37
self-splicing fitness (ln) (37 °C): -1.57 ± 0.23

ACGAAGCAAUAUUACGCCUU
self-splicing fitness (ln) (30 °C): -2.57 ± 0.14
self-splicing fitness (ln) (37 °C): -0.89 ± 0.13

ACGAAGCAAUAUUACGCGGA
self-splicing fitness (ln) (30 °C): -1.96 ± 0.17
self-splicing fitness (ln) (37 °C): -1.33 ± 0.13

ACGAAGCAAUAUUACGCGUG
self-splicing fitness (ln) (30 °C): -1.13 ± 0.051
self-splicing fitness (ln) (37 °C): -0.442 ± 0.074

ACGAAGCAAUAUUACGCUCA
self-splicing fitness (ln) (30 °C): -0.808 ± 0.11
self-splicing fitness (ln) (37 °C): 0.223 ± 0.17

ACGAAGCAAUAUUACGCUCG
self-splicing fitness (ln) (30 °C): -1.53 ± 0.14
self-splicing fitness (ln) (37 °C): -1.17 ± 0.17

ACGAAGCAAUAUUACGCUGU
self-splicing fitness (ln) (30 °C): -2.16 ± 0.13
self-splicing fitness (ln) (37 °C): -0.576 ± 0.11

ACGAAGCAAUAUUACGGCAG
self-splicing fitness (ln) (30 °C): -2.17 ± 0.13
self-splicing fitness (ln) (37 °C): -1.58 ± 0.14

ACGAAGCAAUAUUACGGCGA
self-splicing fitness (ln) (30 °C): -0.157 ± 0.087
self-splicing fitness (ln) (37 °C): 0.0766 ± 0.12

ACGAAGCAAUAUUACGGCGU
self-splicing fitness (ln) (30 °C): -2.47 ± 0.09
self-splicing fitness (ln) (37 °C): -1.74 ± 0.11

ACGAAGCAAUAUUACGGGAA
self-splicing fitness (ln) (30 °C): -3.09 ± 0.19
self-splicing fitness (ln) (37 °C): -1.31 ± 0.13

ACGAAGCAAUAUUACGUACU
self-splicing fitness (ln) (30 °C): -0.484 ± 0.064
self-splicing fitness (ln) (37 °C): -0.0153 ± 0.089

ACGAAGCAAUAUUACGUCCA
self-splicing fitness (ln) (30 °C): -0.408 ± 0.12
self-splicing fitness (ln) (37 °C): -0.457 ± 0.13

ACGAAGCAAUAUUACGUUGC
self-splicing fitness (ln) (30 °C): -3.45 ± 0.17
self-splicing fitness (ln) (37 °C): -1.8 ± 0.16

ACGCAGCAAUAUUACGAACC
self-splicing fitness (ln) (30 °C): -1.99 ± 0.16
self-splicing fitness (ln) (37 °C): -0.986 ± 0.26

ACGCAGCAAUAUUACGAAGC
self-splicing fitness (ln) (30 °C): -3.38 ± 0.24
self-splicing fitness (ln) (37 °C): -1.6 ± 0.28

ACGCAGCAAUAUUACGAAGG
self-splicing fitness (ln) (30 °C): -2.61 ± 0.13
self-splicing fitness (ln) (37 °C): -1.3 ± 0.14

ACGCAGCAAUAUUACGAGAU
self-splicing fitness (ln) (30 °C): -3.32 ± 0.14
self-splicing fitness (ln) (37 °C): -2.68 ± 0.18

ACGCAGCAAUAUUACGAGUA
self-splicing fitness (ln) (30 °C): -3.72 ± 0.33
self-splicing fitness (ln) (37 °C): -3.07 ± 0.27

ACGCAGCAAUAUUACGAUGU
self-splicing fitness (ln) (30 °C): -2.13 ± 0.057
self-splicing fitness (ln) (37 °C): -1.16 ± 0.078

ACGCAGCAAUAUUACGCAUU
self-splicing fitness (ln) (30 °C): -3.81 ± 0.19
self-splicing fitness (ln) (37 °C): -1.89 ± 0.12

ACGCAGCAAUAUUACGCCGC
self-splicing fitness (ln) (30 °C): -3.68 ± 0.29
self-splicing fitness (ln) (37 °C): -2.42 ± 0.25

ACGCAGCAAUAUUACGCCUU
self-splicing fitness (ln) (30 °C): -0.484 ± 0.082
self-splicing fitness (ln) (37 °C): 0.1 ± 0.095

ACGCAGCAAUAUUACGCGAC
self-splicing fitness (ln) (30 °C): -2.01 ± 0.15
self-splicing fitness (ln) (37 °C): -2.24 ± 0.21
